# T1: mouse MuSK (mouse, UniProt Q61006 22-494, limits assumed)
# T1 construct: Coated on ELISA plates or on the Biacore chip; also called full length mouse MuSK; mouse MuSK (in house produced in HEK293 cells)
# T1 sequence (looked up): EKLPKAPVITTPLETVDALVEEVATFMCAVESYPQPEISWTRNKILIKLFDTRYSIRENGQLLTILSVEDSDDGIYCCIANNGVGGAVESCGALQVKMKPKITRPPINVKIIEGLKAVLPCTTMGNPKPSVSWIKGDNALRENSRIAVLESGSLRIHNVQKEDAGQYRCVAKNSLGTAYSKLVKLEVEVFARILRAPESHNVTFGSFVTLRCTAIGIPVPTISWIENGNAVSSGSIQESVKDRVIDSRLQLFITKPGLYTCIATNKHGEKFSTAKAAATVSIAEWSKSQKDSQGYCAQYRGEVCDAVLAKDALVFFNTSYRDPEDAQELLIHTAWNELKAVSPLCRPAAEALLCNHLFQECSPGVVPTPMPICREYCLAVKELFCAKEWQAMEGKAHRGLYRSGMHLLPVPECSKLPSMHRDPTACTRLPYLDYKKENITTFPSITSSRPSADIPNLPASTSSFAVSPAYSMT
# T2: human MuSK (human, UniProt O15146 24-495)
# T2 construct: Recombinant protein coated on ELISA plates (R&D Systems cat. 10189-MK) or on the Biacore chip; also called human muscle-specific tyrosine protein kinase; full length human MuSK
# T2 sequence: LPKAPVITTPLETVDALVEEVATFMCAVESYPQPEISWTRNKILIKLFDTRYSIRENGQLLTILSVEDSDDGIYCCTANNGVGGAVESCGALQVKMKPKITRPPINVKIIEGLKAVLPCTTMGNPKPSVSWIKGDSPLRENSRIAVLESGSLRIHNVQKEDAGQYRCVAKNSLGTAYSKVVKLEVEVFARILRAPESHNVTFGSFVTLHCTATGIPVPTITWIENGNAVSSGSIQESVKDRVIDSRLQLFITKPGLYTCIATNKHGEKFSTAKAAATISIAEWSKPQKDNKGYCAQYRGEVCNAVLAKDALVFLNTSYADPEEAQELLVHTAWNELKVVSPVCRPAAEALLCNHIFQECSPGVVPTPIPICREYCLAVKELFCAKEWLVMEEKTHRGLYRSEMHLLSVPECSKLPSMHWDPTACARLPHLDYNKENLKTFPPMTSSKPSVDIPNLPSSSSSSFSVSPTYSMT
# T3: hFz: Fz domain and C-terminal flanking sequence of human MuSK (K314-T495) with C-terminal Avi- and His6-tags (human, UniProt O15146 314-495, biotinylated in vitro using the BirA enzyme)
# T3 construct: also called human Fz; not shown: Avi- and His6-tags
# T3 sequence: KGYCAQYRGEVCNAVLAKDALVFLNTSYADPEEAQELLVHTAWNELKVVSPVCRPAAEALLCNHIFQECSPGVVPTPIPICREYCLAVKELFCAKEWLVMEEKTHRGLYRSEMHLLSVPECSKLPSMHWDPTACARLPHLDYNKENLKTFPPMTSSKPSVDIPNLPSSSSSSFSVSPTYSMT
# T4: mFz: Fz domain and C-terminal flanking sequence of mouse MuSK (D307 to T494) with C-terminal Avi- and … (mouse, UniProt Q61006 307-494, limits assumed, biotinylated in vitro using the BirA enzyme)
# T4 construct: also called mouse Fz; not shown: Avi- and His6-tags
# T4 sequence (looked up): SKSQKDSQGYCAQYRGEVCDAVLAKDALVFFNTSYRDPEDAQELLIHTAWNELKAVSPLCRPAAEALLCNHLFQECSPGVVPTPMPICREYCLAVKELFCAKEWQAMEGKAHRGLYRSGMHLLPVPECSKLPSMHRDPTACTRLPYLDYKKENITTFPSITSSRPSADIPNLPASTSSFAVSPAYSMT
# T5: hECD: full-length extracellular region of human MuSK (E22 to T495) with C-terminal Avi- and His6-tags (human, UniProt O15146 22-495, biotinylated in vitro using the BirA enzyme)
# T5 construct: also called human ECD; not shown: Avi- and His6-tags
# T5 sequence: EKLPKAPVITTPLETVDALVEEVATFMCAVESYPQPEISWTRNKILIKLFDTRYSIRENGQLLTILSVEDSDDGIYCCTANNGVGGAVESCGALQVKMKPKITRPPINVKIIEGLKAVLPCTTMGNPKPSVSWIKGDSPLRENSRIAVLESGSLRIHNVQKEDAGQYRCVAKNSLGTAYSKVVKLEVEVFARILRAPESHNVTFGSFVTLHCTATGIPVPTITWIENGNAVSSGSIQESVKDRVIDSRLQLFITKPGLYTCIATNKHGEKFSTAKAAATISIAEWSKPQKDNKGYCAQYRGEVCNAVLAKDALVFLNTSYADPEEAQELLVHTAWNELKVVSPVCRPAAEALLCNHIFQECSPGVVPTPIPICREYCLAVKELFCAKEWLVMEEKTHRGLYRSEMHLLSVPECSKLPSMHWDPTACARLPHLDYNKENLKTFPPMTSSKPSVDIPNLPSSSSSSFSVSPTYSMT
# T6: mECD: full-length extracellular region of mouse MuSK (E22 to T494) with C-terminal Avi- and His6-tags (mouse, UniProt Q61006 22-494, biotinylated in vitro using the BirA enzyme)
# T6 construct: range 22-494; also called mouse ECD; not shown: Avi- and His6-tags
# T6 sequence (looked up): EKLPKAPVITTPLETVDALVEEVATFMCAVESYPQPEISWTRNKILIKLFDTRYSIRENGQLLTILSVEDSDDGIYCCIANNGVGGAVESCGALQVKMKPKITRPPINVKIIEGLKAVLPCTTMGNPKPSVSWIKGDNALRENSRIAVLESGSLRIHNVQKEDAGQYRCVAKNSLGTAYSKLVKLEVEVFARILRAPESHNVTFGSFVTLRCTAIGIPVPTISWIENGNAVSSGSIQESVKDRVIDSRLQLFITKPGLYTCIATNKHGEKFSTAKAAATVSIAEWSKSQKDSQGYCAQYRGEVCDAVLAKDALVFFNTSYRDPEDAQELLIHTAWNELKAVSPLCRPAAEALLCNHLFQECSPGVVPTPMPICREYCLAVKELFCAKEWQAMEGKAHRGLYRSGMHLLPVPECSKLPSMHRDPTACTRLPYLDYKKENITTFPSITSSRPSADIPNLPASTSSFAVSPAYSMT
# Key:
# mouse MuSK [1] = molecular target: T1, mouse MuSK; test: Biacore T200, MuSK on chip (200RU), 22.2 nM Fab, dissociation pH 7.4
# Description: (§1) In order to study pH dependent binding of the antibodies described herein to MuSK, a Biacore T200 was used. Briefly, a CMS chip was coated with human and mouse MuSK (200RU) and 22.2 nM of Fab was applied and kinetic parameters calculated. Association was done at pH7.4, dissociation was done at pH 7.4 and also at pH 5.5. The following Fabs were tested, X2, X2m4, X3, X9, X17, 3B2 and 3B2g2m1 (Table 10 and FIG. 23). […] Binding affinity at pH 5.5 is very low, resulting in a rapid dissociation at endosomal pH allowing 3B2g2m1 to recycle.
# human MuSK [2] = molecular target: T2, human MuSK; test: as above
# Description: as §1
# mouse MuSK [3] = molecular target: T1, mouse MuSK; test: Biacore T200, MuSK on chip (200RU), 22.2 nM Fab, dissociation pH 5.5
# Description: as §1
# human MuSK [4] = molecular target: T2, human MuSK; test: as above
# Description: as §1
# mouse MuSK [5] = molecular target: T1, mouse MuSK; test: Biacore T200, off rate at pH 5.5 against pH 7.4
# Description: as §1
# human MuSK [6] = molecular target: T2, human MuSK; test: Biacore T200, off rate at pH 5.5 against pH 7.4
# Description: as §1
# [7] = molecular target: T3, hFz: Fz domain and C-terminal flanking …; test: bead-binding assay, IgG format: biotinylated antigen on streptavidin beads, flow cytometry, 1:1 fit; average ± s.d., n=3
# [8] = molecular target: T4, mFz: Fz domain and C-terminal flanking …; test: as above
# [9] = molecular target: T5, hECD: full-length extracellular region …; test: as above
# [10] = molecular target: T6, mECD: full-length extracellular region …; test: as above
Binder,koff (mouse MuSK [1]) [s⁻¹],koff (human MuSK [2]) [s⁻¹],koff (mouse MuSK [3]) [s⁻¹],koff (human MuSK [4]) [s⁻¹],Ratio pH 5.5/7.4 of off rate (mouse MuSK [5]),Ratio pH 5.5/7.4 of off rate (human MuSK [6]),Kd [7] [nM],Kd [8] [nM],Kd [9] [nM],Kd [10] [nM]
"X2m4 Fab (Fab, V domains shown, Fab format) VH: EVQLVESGGGLVQPGGSLRLSCAASGFTVSSSSIHWVRQAPGKGLEWVASISSSYGSTSYADSVKGRFTISADTSKNTAYLQMNSLRAEDTAVYYCARSEGDRYVSGYSGLDYWGQGTLVTVSS VL: DIQMTQSPSSLSASVGDRVTITCRASQSVSSAVAWYQQKPGKAPKLLIYSASSLYSGVPSRFSGSRSGTDFTLTISSLQPEDFATYYCQQSGVWLITFGQGTKVEIK",0.00337,0.00867,0.00416,0.00586,1.2,0.7,,,,
"3B2g2m1 Fab (Fab, V domains shown, Fab format) VH: EVQLLESGGGLVQPGGSLRLSCAASGFTFSDYGMSWVRQAPGKGLEWVSAIPWSGGSTYYKESVKGRFTISRDNSKNTLYLQMNSLRAEDTAVYYCAKRSGRIAFGALDAWGQGTLVTVSS VL: QTVVTQEPSFSVSPGGTVTLTCGLSSGSVTSSNYPDWYQQTPGQAPRTLIYSTDSRHSGVPDRFSGSILGNKAALTITGAQADDESDYYCGLYSYSGSKNYVFGGGTKLTVL",0.00766,0.00472,0.0679,0.0288,8.9,6.1,,,,

# The remaining lines, values ahead:
koff (mouse MuSK [1]) [s⁻¹],koff (human MuSK [2]) [s⁻¹],koff (mouse MuSK [3]) [s⁻¹],koff (human MuSK [4]) [s⁻¹],Ratio pH 5.5/7.4 of off rate (mouse MuSK [5]),Ratio pH 5.5/7.4 of off rate (human MuSK [6]),Kd [7] [nM],Kd [8] [nM],Kd [9] [nM],Kd [10] [nM],Binder
0.00015,0.00059,0.00105,0.00083,7.1,1.4,,,,,"X9 Fab (Fab, V domains shown, Fab format) VH: EVQLVESGGGLVQPGGSLRLSCAASGFTFSSSSIHWVRQAPGKGLEWVASIYSSSGSTYYADSVKGRFTISADTSKNTAYLQMNSLRAEDTAVYYCARSGGEFYITSYYGMDYWGQGTLVTVSS VL: DIQMTQSPSSLSASVGDRVTITCRASQSVSSAVAWYQQKPGKAPKLLIYSASSLYSGVPSRFSGSRSGTDFTLTISSLQPEDFATYYCQQSSSSLITFGQGTKVEIK"
,,,,,,0.56,0.68,0.86,1.04,"hIgG1-X17 (antibody, V domains shown, human IgG1 Fc containing LALA mutations; also called hIgG-X17; X17 in human IgG1 format) VH: EVQLVESGGGLVQPGGSLRLSCAASGFTISYSSIHWVRQAPGKGLEWVASIYSSSGSTYYADSVKGRFTISADTSKNTAYLQMNSLRAEDTAVYYCARGDHGYYVFGYLGMDYWGQGTLVTVSS VL: DIQMTQSPSSLSASVGDRVTITCRASQSVSSAVAWYQQKPGKAPKLLIYSASSLYSGVPSRFSGSRSGTDFTLTISSLQPEDFATYYCQQSYKPGALITFGQGTKVEIK"
